Measured values as given in US6080542A, “Plant peptide transport gene” (priority 1997, dated 2000).
One block for each molecule: values may come before it. Where a SMILES comes first, the peptide text is derived from it. Where no end group is shown, it is not given here. [ ]: non-standard residue; d: D form. hCys = N[C@@H](CCS)C(=O)O; Eth = ethionine

What was measured:
PB1X-9B (pJP9) = test: Toxic peptide disk assay, mutant with yeast peptide transport gene; assay type: cell-based, Saccharomyces cerevisiae; conditions: disk with 0.38 μmoles, lawn of 5×10^6 cells, 30° C., 1 to 2 days, mean ± standard error
Protocol: (§1) Since ptr mutants are deficient in peptide transport, they are unable to take up toxic peptides. This inability renders such mutants resistant to the toxic effect of the peptides. In order to determine whether the polynucleotides of the present invention could restore toxic peptide sensitivity to ptr2 mutants, the sensitivity of plasmid-transformed cells was determined. Sensitivity to toxic amino acids and peptides was measured as described by Island, M. D. et al. (J. Bacteriol. 169:2132-2136 (1987)). Briefly, a filter disk containing 0.38 μmoles of the toxic compound was placed on a lawn containing 5×10^6 cells and the plate incubated at 30° C. for 1 to 2 days. Resulting halos were measured across their diameter. The toxic dipeptides Leu-Eth, Ala-Eth, Leu-F-Phe and Oxalysine were synthesized by standard solution phase techniques (Naider, F. et al., J. Biol. Chem. 249:9-20 (1974). The results of this experiment are shown in Table 2 (values are the mean of the diameters of the observed zone of inhibition in millimeters±standard error of the mean of at least two independent experiments).

PB1X-9B (pPTF4) = test: Toxic peptide disk assay, mutant with plant gene ATPTR2A; assay type: cell-based, Saccharomyces cerevisiae
Protocol: as §1

S288C = test: Toxic peptide disk assay, wild type; assay type: cell-based, Saccharomyces cerevisiae; conditions: disk with 0.38 μmoles, lawn of 5×10^6 cells, 30° C., 1 to 2 days, mean ± standard error
Protocol: as §1

A. thaliana seedlings = test: Root elongation of seedlings exposed to toxic peptides; assay type: in vivo, Arabidopsis thaliana
Protocol: (§2) Thus, A. thaliana seeds and seedlings were exposed to Ethionine, Ala-Eth, Leu-Eth, Leu-fluorophenylalanine or oxalysine containing peptides, and the minimum inhibitory concentrations (MIC) were determined for each of the toxic compounds.
Approximately 15 A. thaliana seeds were placed in a row at one end of 10 cm plate containing 20 ml of Arabidopsis growth media (Kranz and Kirchheim 1987). The seeds were incubated 3-5 days in the light with the plate set in an upright position. When the roots were approximately 1-2 cm long, sterile paper filter disks were placed immediately in front of the root tips on the right and left side of the plate 2 cm from the edge of the plate. A line was drawn across the plate using the top of the disks as a guide marking zero growth. 5 μl of toxic amino acid analog, toxic peptide, or toxic peptide plus competitor was added to one disk while H2 O was place on the other disk. The plates were incubated for an additional 3-5 days. The average length of the roots was measured from the line and the results expressed as a percentage of control root growth.

A. thaliana seeds = test: Seed germination with toxic peptides (minimum inhibitory concentration); assay type: in vivo, Arabidopsis thaliana; conditions: A. thaliana seeds
Protocol: as §2
To measure the minimum inhibitory concentration of the toxic peptides, 10 to 15 A. thaliara seeds were place on solid Arabidopsis growth media with decreasing concentrations of toxic peptide. The seeds were incubated for 4 days in the dark and then scored for germination.

PB1X-9B(pJP2) = test: Dipeptide utilization, L-alanyl-L-ethionine sensitivity and dileucine transport of secondary transformants; assay type: cell-based, Saccharomyces cerevisiae
Protocol: Plasmid pJP2 was then reintroduced into PB1X-9B. The resulting secondary yeast transformants were tested for the ability to use a variety of dipeptides as sources of amino acids and for sensitivity to the toxic dipeptide L-alanyl-L-ethionine. Thus, strains were grown in YEPG broth at 30° C. to a titer of 10^8 cells per ml. The cells were harvested by centrifugation, washed twice with sterile water and resuspended at 1.0×10^7 cells per ml. A 5-μl aliquot was applied to solid MM containing dipeptides and amino acids as required. Four types of solid media were routinely used in assessing dipeptide utilization: MM+L-leucyl-L-leucine-L-lysine+L-histidine, MM-L-lysI-L-lysine-L-leucine-L-histidine (SEQ ID NO:12), MM-L-lysl-L-leucine-L-histidine, and MM-L-histydyl-L-leucine-L-lysine. All dipeptides were present at a concentration of 80 μM, while amino acids and nucleotide bases were added as required at standard concentrations (Sherman, F. et al., In: Methods in Yeast Genetics, Cold Spring Harbor Laboratory, Clod Spring Harbor, N.Y. (1986)). The plates were incubated at 30° C. for 48 hours and then scored for growth.

Lys-Leu-Leu-Ala-Eth = target: T1, Lys-Leu-Leu-Ala-Eth; test: cell-based or functional assay
T1 peptide: KLLA-Eth

Lys-Leu-Leu-Leu-Eth = target: T2, Lys-Leu-Leu-Leu-Eth; test: cell-based or functional assay
T2 peptide: KLLL-Eth

Met-Met = target: T3, Met-Met; test: cell-based or functional assay
T3 peptide: MM

Ala-Ala = target: T4, Ala-Ala; test: cell-based or functional assay
T4 peptide: AA

Ala-Ala-Ala = target: T5, Ala-Ala-Ala; test: cell-based or functional assay
T5 peptide: AAA

L-alanyl-L-ethionine [1] = target: L-alanyl-L-ethionine
Leu-Eth [2] = target: Leu-Eth
L-alanyl-L-ethionine [3] = target: L-alanyl-L-ethionine; remark: listed apart in the source
Leu-Eth [4] = target: Leu-Eth; remark: listed apart in the source

Molecule: CCSCC[C@H](NC(=O)[C@H](C)N)C(=O)O [Ala-Eth, L-alanyl-L-ethionine] (H-Ala-[hCys](Et)-OH)
diameter of zone of inhibition (PB1X-9B (pJP9)): 42.5 ± 2.5 millimeters | sensitivity or resistance to toxic compound (PB1X-9B (pPTF4)): restores sensitivity | diameter of zone of inhibition (PB1X-9B (pPTF4); disk with 0.38 μmoles, lawn of 5×10^6 cells, 30° C., 1 to 2 days, mean ± standard error): 35.0 ± 1.0 millimeters | diameter of zone of inhibition (S288C): 33.5 ± 2.5 millimeters | amount that inhibits root elongation of seedlings (A. thaliana seedlings): 0.038 µmol | amount that inhibits germination of seeds (A. thaliana seeds): 0.038 µmol | sensitivity to toxic dipeptide (PB1X-9B(pJP2)): sensitive

diameter of the zone of inhibition, disk assay with 0.38 µmoles (Lys-Leu-Leu-Ala-Eth): 0 mm | diameter of the zone of inhibition, disk assay with 0.38 µmoles (Lys-Leu-Leu-Leu-Eth): 0 mm | reversal by a competitor peptide of the inhibition of A. thaliana root growth by Ala-Eth or Leu-Eth (Met-Met): 40 % of control root growth | reversal by a competitor peptide of the inhibition of A. thaliana root growth by Ala-Eth or Leu-Eth (Ala-Ala): 0 % of control root growth | reversal by a competitor peptide of the inhibition of A. thaliana root growth by Ala-Eth or Leu-Eth (Ala-Ala-Ala): 0 % of control root growth | diameter of the zone of inhibition, disk assay with 0.38 µmoles (L-alanyl-L-ethionine [1]): 35 mm | diameter of the zone of inhibition, disk assay with 0.38 µmoles (Lys-Leu-Eth): 35 mm | diameter of the zone of inhibition, disk assay with 0.38 µmoles (Leu-F-Phe): 37 mm | diameter of the zone of inhibition, disk assay with 0.38 µmoles (Leu-Eth [2]): 45 mm | diameter of the zone of inhibition, disk assay with 0.38 µmoles (Lys-Ala-Eth): 37.5 mm | diameter of the zone of inhibition, disk assay with 0.38 µmoles (Lys-Leu-Ala-Eth): 0 mm | diameter of the zone of inhibition, disk assay with 0.38 µmoles (Lys-Leu-Leu-Eth): 0 mm | inhibition of germination of A. thaliana seeds and of root elongation of seedlings (L-alanyl-L-ethionine [3]): 0.038 µmol | inhibition of germination of A. thaliana seeds and of root elongation of seedlings (Leu-Eth [4]): 0.038 µmol
B1: ATPTR2Ap protein (other)
chain: MSSIEEQITKSDSDFIISEDQSYLSKEKKADGSATINQADEQSSTDELQKSMSTGVLVNGDLYPSPTEEELATLPSVCGTIPWKAFIIIIVELCERFAYYGLTVPFQNYMQFGPKDATPGALNLGETGADGLSNFFTFWCYVTPVGAALIADQFLGRYNTIVCSAVIYFIGILILTCTAIPSVIDAGKSMGGFVVSLIIIGLGTGGIKSNVSPLMAEQLPKIPPYVKTKKNGSKVIVDPVVTTSRAYMIFYWTINVGSLSVLATTSLESTKGFVYAYLLPLCVFVIPLIILAVSKTAFTSTLLPPVPSLFVLVKCSSLLLKTNLISKKLNHLALLLLERYVKDQWDDLFIDELKRALRACKTFLFYPIYWVCYGQMTNNLISQAGQMQTGNVSNDLFQAFDSIALIIFIPICDNIIYPLLRKYNIPFKPILRITLGFMFATASMIYAAVLQAKIYQRGPCYANFTDTCVSNDISVWIQIPAYVLIAFSEIFASITGLEFAFTKAPPSMKSIITALFLFTNAFGAILSICISSTAVNPKLTWMYTGIAVTAFIAGIMFWVCFHHYDAMEDEQNQLEFKRNDALTKKDVEKEVHDSYSMADESQYNLEKANC
